US20110130449

Tests used:
[1] = test system: AR(me2asym)TKQTARKSTGGKAPPK
[2] = test system: AR(me2sym)TKQTARKSTGGKAPPK

Row | Substance | Jmj6 hydroxylation activity (standard assay, MALDI-TOF MS) (NPKRSRSREHRR (peptide d)) | hydroxylation of the peptide (MALDI-TOF MS), large scale (NPKRSRSREHRR (peptide d)) | activity (hydroxylation of the peptide by Jmjd6, MALDI-TOF MS) [1] | activity (hydroxylation of the peptide by Jmjd6, MALDI-TOF MS) [2] | position of hydroxylation (MS/MS) (NPKRSRSREHRR (peptide d)) | hydroxylation of the peptide by Jmjd6 (peptide g) | hydroxylation of the peptide by Jmjd6 (peptide f)
1 | full-length Jmjd6 (recombinant) | both the truncated Jmjd6 polypeptides and full-length Jmjd6 hydroxylated peptide d | leaving the assay mixture overnight at room temperature till peptide showed complete hydroxylation | – | – | – | – | –
2 | N-terminally His6-tagged human Jmjd6 (residues 1-343) | both the truncated Jmjd6 polypeptides and full-length Jmjd6 hydroxylated peptide d | – | Double hydroxylation no demethylation | Double hydroxylation no demethylation | consistent with the hydroxylation of lysine-3 in peptide d, corresponding to lysine 269 in LUC-like2 | Peptides f and g, which do not contain any lysine residues, were not hydroxylated by Jmjd6. | Peptides f and g, which do not contain any lysine residues, were not hydroxylated by Jmjd6.
